Test results: publication PMC10997057

How the values were obtained:
[1] = molecular target: synthetic AL amyloid fibrils composed of the recombinant λ6 light chain variable domain from patient (human); assay: co-sedimentation; pulldown as for WIL fibrils except that 1.0% bovine serum albumin was added; synthetic rVλ6WIL fibrils as substrate
[2] = molecular target: synthetic AL amyloid fibrils composed of the recombinant λ6 light chain variable domain from patient (human); assay: co-sedimentation; "pulldown" bioactivity assay as a1; batch product stored 3 h at RT post-synthesis
[3] = molecular target: synthetic AL amyloid fibrils composed of the recombinant λ6 light chain variable domain from patient (human); assay: co-sedimentation; "pulldown" bioactivity assay; product labelled from lyophilized "kit" preparations stored at -80°C for 7, 98 and 128 days
[4] = molecular target: synthetic AL amyloid fibrils composed of the recombinant λ6 light chain variable domain from patient (human); assay: co-sedimentation; "pulldown" bioactivity assay; batch product at 0 h post-synthesis; 25 ug fibrils in PBS with 0.05% tween 20, 20-40 ng radiolabeled product, 1 h at RT, centrifugation 10,000 x g 3 min, gamma counting of pellet and supernatant
[5] = molecular target: synthetic AL amyloid fibrils composed of the recombinant λ6 light chain variable domain from patient (human); assay: co-sedimentation; "pulldown" bioactivity assay as a1; batch product 6 h post-synthesis (some loss of ^99mTcO4^-1 from the peptide)
[6] = molecular target: ALκ amyloid extract (patient liver) (human (endogenous in patient liver)); assay: co-sedimentation; pulldown with tissue amyloid extracts suspended in PBS at 1 mg/mL, homogenized; as for WIL fibrils except that 1.0% bovine serum albumin was added
[7] = molecular target: ALλ amyloid extract (patient spleen) (human (endogenous in patient spleen)); assay: as above
[8] = molecular target: ATTRv amyloid extract (patient heart), variant not named (human (endogenous in patient heart)) (UniProt P02766); assay: as above
[9] = molecular target: murine splenic AA amyloid extract (mouse (endogenous in spleen)) (UniProt P05367); assay: as above
murine splenic AA amyloid extract (mouse (endogenous in spleen)), sequence (P05367 20-122): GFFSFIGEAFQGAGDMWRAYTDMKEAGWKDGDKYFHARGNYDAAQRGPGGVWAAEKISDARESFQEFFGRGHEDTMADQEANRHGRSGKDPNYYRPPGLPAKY

^99mTc-labeled p5+14 peptide, sequence (peptide): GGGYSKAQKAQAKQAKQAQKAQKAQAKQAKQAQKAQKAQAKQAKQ

bound (%) [1]: 91.1%
Bioactivity (bound %), 3 h post-synthesis [2]: 92.9%
bioactivity (% bound), kit at day 7 [3]: 76.8%
bioactivity (% bound), kit at day 98 [3]: 75.1%
bioactivity (% bound), kit at day 128 [3]: 75.2%
Bioactivity (bound %), 0 h post-synthesis [4]: 94%
Bioactivity (bound %), 6 h post-synthesis [5]: 72.2%
bound (%) [6]: 93.3%
bound (%) [7]: 88.1%
bound (%) [8]: 79%
bound (%) [9]: 67.8%
Substance: ^99mTc-labeled p5+14 peptide
